The target of data set [1] is T1, EVNLAAEF (SEQ ID NO: 258).
T1 chain: EVNLAAEF

Data set [2] concerns the target T2, EVNFEAEF (SEQ ID NO: 260).
T2 chain: EVNFEAEF

For data set [3], the target named is T3, EVNLDAEF, Swedish mutant APP 8-mer peptide (SEQ ID NO: 257).
T3 chain: EVNLDAEF

Data set [4] addresses T4, P1′ peptide library component with P1′=Gly.
T4 chain: EVNLGAEF

Data set [5] addresses T5, EVNFEVEF (SEQ ID NO: 262).
T5 chain: EVNFEVEF

The target in data set [6] is T6, P1′ peptide library component with P1′=Pro.
T6 chain: EVNLPAEF

Data set [7] deals with T7, EVNFAVEF (SEQ ID NO: 261).
T7 chain: EVNFAVEF

The target in data set [8] is T8, P1′ peptide library component with P1′=Glu.
T8 chain: EVNLEAEF

In data set [9] the target is T9, EVNFAAEF (SEQ ID NO: 259).
T9 chain: EVNFAAEF

B1: β-secretase (protein)
chain: ETDEEPEEPGRRGSFVEMVDNLRGKSGQGYYVEMTVGSPPQTLNILVDTGSSNFAVGAAPHPFLHRYYQRQLSSTYRDLRKGVYVPYTQGKWEGELGTDLVSIPHGPNVTVRANIAAITESDKFFINGSNWEGILGLAYAEIARPDDSLEPFFDSLVKQTHVPNLFSLQLCGAGFPLNQSEVLASVGGSMIIGGIDHSLYTGSLWYTPIRREWYYEVIIVRVEINGQDLKMDCKEYNYDKSIVDSGTTNLRLPKKVFEAAVKSIKAASSTEKFPDGFWLGEQLVCWQAGTTPWNIFPVISLYLMGEVTNQSFRITILPQQYLRPVEDVATSQDDCYKFAISQSSTGTVMGAVIMEGFYVVFDRARKRIGFAVSACHVHDEFRTAAVEGPFVTLDMEDCGYNIPQTDESTLMTIAY
For B1, the Relative rates of hydrolysis (relative to SEQ ID NO: 257) in [1] stood at 10; in data set [2] it was 17; in data set [3], 1; in [5] it was 60; in [7], 30; in data set [9], 17. Also, the “depletion of full length peptide substrate (LC/MS)” value was “most rapidly hydrolyzed by β-secretase (P1′=Glu and P1′=Ala)” in data set [1]; “one intermediate sequence (P1′=Asp-the residue normally present in Swedish mutant APP)” in data set [3]; “two peptides that were not cleaved by β-secretase (P1′=Gly and P1′=Pro)” in data set [4]; “two peptides that were not cleaved by β-secretase (P1′=Gly and P1′=Pro)” in [6]; “most rapidly hydrolyzed by β-secretase (P1′=Glu and P1′=Ala)” in data set [8]. The “formation of C-terminal cleavage products (LC/MS)” value in data set [1] is “more rapid and comparable rates of formation of the products represented by P1′=Ala and P1′=Glu”; in data set [3], “the P1′=Asp product shows formation consistent with this residue being less conducive to β-secretase hydrolysis than either Glu or Ala”; in [8], “more rapid and comparable rates of formation of the products represented by P1′=Ala and P1′=Glu”.

The record behind these values is patent publication US20070184488.
